Experimental findings from paper PMC11548041 are described below.

This series has as its target T1, EpCAM (endogenous on HuCCT1 cells) (UniProt P16422).
T1 sequence: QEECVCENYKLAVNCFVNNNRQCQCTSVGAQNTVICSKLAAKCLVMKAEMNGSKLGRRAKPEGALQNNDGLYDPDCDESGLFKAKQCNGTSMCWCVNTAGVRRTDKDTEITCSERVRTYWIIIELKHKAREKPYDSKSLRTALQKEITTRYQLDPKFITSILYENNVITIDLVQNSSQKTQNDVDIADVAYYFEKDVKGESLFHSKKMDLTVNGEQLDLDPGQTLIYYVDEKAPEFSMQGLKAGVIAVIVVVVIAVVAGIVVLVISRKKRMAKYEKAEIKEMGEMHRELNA
Description: flow cytometry on HuCCT1 cells. The following applies: Whole cells, 30 min on ice, HuCCT1 biotin block in PBS + 0.2% NaN3, 2.5 mM MgCl2, 0.1 mg/mL yeast total RNA (aptamer binding buffer not separately stated) ….

Regarding “GACCCACGGAGGTTGCGTCCGTGGGGGAC [PLD02 (B-aptamer)]”, the Kd (phosphorothioate (marked * in Table 2): G*A*C*CCACGGAGGTTG*CGTCCGTG*GGGG*A*C) is 236 nM.

Regarding “CACACTTCTAAGAGGGAACAGACGTCGATCTTTGCGGAACTCCTGCG [PLD01 (B-aptamer)]”, the Kd (phosphorothioate (marked * in Table 2): C*A*C*ACTTCTAAGAGGG*AACAGACGTCGATCTTTGCGGAACT*CCTG*C*G) amounted to 177 nM.
